This note sets out measurements from US20210087289A1.

Assay [1] has as its target human CD44v6 (CD44 variant containing exon v6), as expressed on PC9 cells and in human tissues (human), P16070. Put plainly: cell-based or functional assay.
For assay [2], the target named is human CD44v9 (CD44 variant containing exon v9), as expressed on PC9 cells and in human tissues (human) (UniProt P16070). Kind of assay: cell-based or functional assay.
Assay [3] has the same target. Put plainly: FACS titration on PC9 cells (30000 pM to 0.1 pM, 3 fold serial dilution), Alexa488 anti-mouse IgG, MFI.

Sequence of UniProt P16070 (P16070 21-742, change not shown): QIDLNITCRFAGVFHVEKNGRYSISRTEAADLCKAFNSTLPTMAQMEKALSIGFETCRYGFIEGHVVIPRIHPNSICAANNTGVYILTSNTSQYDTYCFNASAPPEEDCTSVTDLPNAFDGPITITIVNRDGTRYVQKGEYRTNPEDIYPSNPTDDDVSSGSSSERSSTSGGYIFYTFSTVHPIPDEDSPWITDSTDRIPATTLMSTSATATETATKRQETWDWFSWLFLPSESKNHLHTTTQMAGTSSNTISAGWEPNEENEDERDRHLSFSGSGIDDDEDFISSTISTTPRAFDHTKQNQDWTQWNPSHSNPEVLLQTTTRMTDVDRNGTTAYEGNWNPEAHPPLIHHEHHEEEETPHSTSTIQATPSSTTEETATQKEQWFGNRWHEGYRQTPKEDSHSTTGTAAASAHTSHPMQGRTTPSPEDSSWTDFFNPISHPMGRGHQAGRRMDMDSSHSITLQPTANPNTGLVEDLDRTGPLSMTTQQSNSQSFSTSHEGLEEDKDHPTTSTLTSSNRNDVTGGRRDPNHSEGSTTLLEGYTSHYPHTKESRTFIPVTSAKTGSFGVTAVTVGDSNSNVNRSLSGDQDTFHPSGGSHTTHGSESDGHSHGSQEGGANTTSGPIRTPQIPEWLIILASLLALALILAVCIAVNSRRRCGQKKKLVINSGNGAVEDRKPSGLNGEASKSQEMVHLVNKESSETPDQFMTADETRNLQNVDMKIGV

B1: mAb119-ADC (AMT119), mAb119 conjugated with MC-vc-PAB-MMAE (protein)
VH: EVQLQESGPELKKPGETVKISCKASGYIFTNYGMNWVKQAPGKGLKWMGWINTYTGEPTYADDFKGRFAFSLETSASTAYLQINNLKNEDTATYFCARTDYYGSSYWYFDVWGAGTTVTVSS
VL: DIQMTQTTSSLSASLGDRVTITCSASQGISNYLNWYQQKPDGTVKLLIFYTSTLPSGVPSRFSGSGSGTDYSLTIRNLEPEDFATYCCQQYSKFPYTFGGGTKLEIK
modifications: here or on the partner: MC-vc-PAB-MMAE conjugated to the antibody (average DAR about 6); attachment residues and chain not stated
In assay [1], B1 showed an IC50 of cytotoxicity (growth inhibition) in PC9 cells of 2.6 nM and an IC50 of cytotoxicity (growth inhibition) in TE1 cells of 39 nM.

B2: anti-CD44v9 monoclonal antibody mAb116 (antibody, V domains shown)
VH: QVQLQQSGAELVKPGASVKLSCTASGFNIKDTYMHWVKQRPEQGLEWIGRIDPANGNTKYDPKFQGKATITADTSSNTAYLQLSSLTSEDTAVYYCASRGEGTGFAYWGLGTLVTVSA
VL: DIVMTQSAPSVPVTPGESVSISCRSSKSLLHSNGNTYLYWFLQRPGQSPQLLIHRMSNLASGVPDRFSGSGSGTAFTLRISRVEAEDVGVYYCMQHLEYPFTFGGGTKLEIK
Regarding B2, in assay [2], the IC50 of PC9 growth inhibition (indirect cytotoxicity, mAb116 with 2 µg/mL MMAE-conjugated goat anti mouse IgG, 72 hrs, CCK8) is 0.03 nM. In addition, the Kd in assay [3] amounted to 0.98 nM.
